Measurements taken from US20140213531A1 (POLYPHOR, published 2014).
Bridges are numbered along the chain shown (N, C = ends). [ ]: non-standard residue; d: D form. Pro(5R-Ph) = O=C(O)[C@@H]1CC[C@H](c2ccccc2)N1

T1: CathepsinG, from human neutrophils (human, UniProt P08311 21-244)
T1 sequence (looked up): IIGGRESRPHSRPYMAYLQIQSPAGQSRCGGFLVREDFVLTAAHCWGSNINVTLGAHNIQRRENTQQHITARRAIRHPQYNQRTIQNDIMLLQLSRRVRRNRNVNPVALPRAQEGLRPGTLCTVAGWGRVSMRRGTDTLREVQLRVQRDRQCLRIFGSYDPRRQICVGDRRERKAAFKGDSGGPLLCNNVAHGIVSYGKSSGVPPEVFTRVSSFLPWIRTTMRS

T2: Chymase, from human skin (human, UniProt P23946 22-247)
T2 sequence (looked up): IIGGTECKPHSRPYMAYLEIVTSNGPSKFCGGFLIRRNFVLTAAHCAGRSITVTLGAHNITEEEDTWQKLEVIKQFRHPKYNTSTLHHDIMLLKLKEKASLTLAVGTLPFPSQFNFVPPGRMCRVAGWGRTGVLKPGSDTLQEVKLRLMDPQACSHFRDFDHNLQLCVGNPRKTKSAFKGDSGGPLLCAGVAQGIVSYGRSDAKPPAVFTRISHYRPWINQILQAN

T3: Elastase from human neutrophils (human, UniProt P08246 30-247, limits assumed)
T3 sequence (looked up): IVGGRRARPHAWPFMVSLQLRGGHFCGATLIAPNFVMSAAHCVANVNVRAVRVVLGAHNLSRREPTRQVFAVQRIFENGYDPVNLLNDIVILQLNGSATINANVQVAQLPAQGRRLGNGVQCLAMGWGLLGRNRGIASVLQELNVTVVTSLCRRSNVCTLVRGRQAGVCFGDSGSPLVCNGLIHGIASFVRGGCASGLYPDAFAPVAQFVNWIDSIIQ


Tests used:
Assay in all cases: cell-based or functional assay
[1] = target: T1, CathepsinG, from human neutrophils
Chymase, from human skin = target: T2, Chymase, from human skin
[2] = target: Trypsin, Iodination grade, from human pancreas (human, UniProt P07477 24-247)
[3] = target: T3, Elastase from human neutrophils
[4] = target: Urokinase from human urine (human, UniProt P00749 21-431, limits assumed)
[5] = target: Chymotrypsin, from human pancreas (human, UniProt P17538 19-263)
Chymotrypsin, from human pancreas, sequence (P17538 19-263): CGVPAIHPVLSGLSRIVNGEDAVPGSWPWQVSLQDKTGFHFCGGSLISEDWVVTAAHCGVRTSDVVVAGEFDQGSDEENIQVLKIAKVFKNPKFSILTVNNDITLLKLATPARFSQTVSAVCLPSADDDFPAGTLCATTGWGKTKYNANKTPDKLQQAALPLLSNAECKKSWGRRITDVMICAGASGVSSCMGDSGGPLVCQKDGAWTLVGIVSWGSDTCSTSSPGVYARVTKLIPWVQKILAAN

[6] = target: Tryptase, from human lung (human, UniProt Q15661 31-275, limits assumed)
Tryptase, from human lung, sequence (Q15661 31-275 limits assumed): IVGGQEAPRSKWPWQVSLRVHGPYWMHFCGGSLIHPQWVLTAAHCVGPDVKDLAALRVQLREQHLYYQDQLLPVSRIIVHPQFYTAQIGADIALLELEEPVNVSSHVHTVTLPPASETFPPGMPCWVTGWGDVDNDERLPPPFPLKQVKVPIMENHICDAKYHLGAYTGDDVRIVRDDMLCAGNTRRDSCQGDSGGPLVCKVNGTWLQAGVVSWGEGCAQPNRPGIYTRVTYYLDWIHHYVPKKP

Binder	IC50 [1] [nmol]	% inhibition at 100 µM (Chymase, from human skin) [%]	% inhibition at 100 µM [2] [%]	IC50 [3] [nmol]	% inhibition at 100 µM [4] [%]	% inhibition at 100 µM [5] [%]	% inhibition at 100 µM [6] [%]	% inhibition at 100 µM [3] [%]
FCTKSDPPXCS (HELM PEPTIDE1{F.C.T.K.S.D.P.P.[Cha].C.S.[dP].P}$PEPTIDE1,PEPTIDE1,2:R3-10:R3|PEPTIDE1,PEPTIDE1,1:R1-13:R2$$$V2.0; SMILES C[C@@H](O)[C@@H]1NC(=O)[C@@H]2CSSC[C@H](NC(=O)[C@H](CC3CCCCC3)NC(=O)[C@@H]3CCCN3C(=O)[C@@H]3CCCN3C(=O)[C@H](CC(=O)O)NC(=O)[C@H](CO)NC(=O)[C@H](CCCCN)NC1=O)C(=O)N[C@@H](CO)C(=O)N1CCC[C@@H]1C(=O)N1CCC[C@H]1C(=O)N[C@@H](Cc1ccccc1)C(=O)N2) [Example 16]	66	12.9	90	> 100000	3.2	–	–	–
FCTKSEPPICS (HELM PEPTIDE1{F.C.T.K.S.E.P.P.I.C.S.[dP].P}$PEPTIDE1,PEPTIDE1,2:R3-10:R3|PEPTIDE1,PEPTIDE1,1:R1-13:R2$$$V2.0; SMILES CC[C@H](C)[C@@H]1NC(=O)[C@@H]2CCCN2C(=O)[C@@H]2CCCN2C(=O)[C@H](CCC(=O)O)NC(=O)[C@H](CO)NC(=O)[C@H](CCCCN)NC(=O)[C@H]([C@@H](C)O)NC(=O)[C@@H]2CSSC[C@H](NC1=O)C(=O)N[C@@H](CO)C(=O)N1CCC[C@@H]1C(=O)N1CCC[C@H]1C(=O)N[C@@H](Cc1ccccc1)C(=O)N2) [Example 21]	97	5	95.6	16.4	–	2.6	–	–
XCTKSDPPICY (HELM PEPTIDE1{[Cha].C.T.K.S.D.P.P.I.C.Y.[dP].P}$PEPTIDE1,PEPTIDE1,2:R3-10:R3|PEPTIDE1,PEPTIDE1,1:R1-13:R2$$$V2.0; SMILES CC[C@H](C)[C@@H]1NC(=O)[C@@H]2CCCN2C(=O)[C@@H]2CCCN2C(=O)[C@H](CC(=O)O)NC(=O)[C@H](CO)NC(=O)[C@H](CCCCN)NC(=O)[C@H]([C@@H](C)O)NC(=O)[C@@H]2CSSC[C@H](NC1=O)C(=O)N[C@@H](Cc1ccc(O)cc1)C(=O)N1CCC[C@@H]1C(=O)N1CCC[C@H]1C(=O)N[C@@H](CC1CCCCC1)C(=O)N2) [Example 36]	41	–	–	–	0	–	73.3	–
cyclo(FCTKSDPPICS[dP][Pro(5R-Ph)]) (disulfide 2-10) [Example 48]	83	–	93	> 100000	–	3	–	–
FCTKSDPPICS (HELM PEPTIDE1{F.C.T.K.S.D.P.P.I.C.S.[dI].P}$PEPTIDE1,PEPTIDE1,2:R3-10:R3|PEPTIDE1,PEPTIDE1,1:R1-13:R2$$$V2.0; SMILES CC[C@@H](C)[C@H]1NC(=O)[C@H](CO)NC(=O)[C@@H]2CSSC[C@H](NC(=O)[C@H](Cc3ccccc3)NC(=O)[C@@H]3CCCN3C1=O)C(=O)N[C@@H]([C@@H](C)O)C(=O)N[C@@H](CCCCN)C(=O)N[C@@H](CO)C(=O)N[C@@H](CC(=O)O)C(=O)N1CCC[C@H]1C(=O)N1CCC[C@H]1C(=O)N[C@@H]([C@@H](C)CC)C(=O)N2) [Example 73]	89	–	94	> 100000	–	0	–	–
RXTKSDPPIXF (HELM PEPTIDE1{R.[Nle].T.K.S.D.P.P.I.[Nle].F.[dP].P}$PEPTIDE1,PEPTIDE1,1:R1-13:R2$$$V2.0; SMILES CCCC[C@@H]1NC(=O)[C@H](CCCNC(=N)N)NC(=O)[C@@H]2CCCN2C(=O)[C@H]2CCCN2C(=O)[C@H](Cc2ccccc2)NC(=O)[C@H](CCCC)NC(=O)[C@H]([C@@H](C)CC)NC(=O)[C@@H]2CCCN2C(=O)[C@@H]2CCCN2C(=O)[C@H](CC(=O)O)NC(=O)[C@H](CO)NC(=O)[C@H](CCCCN)NC(=O)[C@H]([C@@H](C)O)NC1=O) [Example 8]	126	71.7	74.2	–	–	5.6	–	0.8
FCTKSDPPXCS (HELM PEPTIDE1{F.C.T.K.S.D.P.P.[Nle].C.S.[dP].P}$PEPTIDE1,PEPTIDE1,2:R3-10:R3|PEPTIDE1,PEPTIDE1,1:R1-13:R2$$$V2.0; SMILES CCCC[C@@H]1NC(=O)[C@@H]2CCCN2C(=O)[C@@H]2CCCN2C(=O)[C@H](CC(=O)O)NC(=O)[C@H](CO)NC(=O)[C@H](CCCCN)NC(=O)[C@H]([C@@H](C)O)NC(=O)[C@@H]2CSSC[C@H](NC1=O)C(=O)N[C@@H](CO)C(=O)N1CCC[C@@H]1C(=O)N1CCC[C@H]1C(=O)N[C@@H](Cc1ccccc1)C(=O)N2) [Example 15]	56	12.7	95	> 100000	–	–	–	–

Results, then the binder that gave them:

IC50 [1] [nmol]	% inhibition at 100 µM (Chymase, from human skin) [%]	% inhibition at 100 µM [2] [%]	IC50 [3] [nmol]	% inhibition at 100 µM [4] [%]	% inhibition at 100 µM [5] [%]	% inhibition at 100 µM [6] [%]	% inhibition at 100 µM [3] [%]	Binder
89	–	94	> 100000	–	0	–	–	FCTKSDPPICS (HELM PEPTIDE1{F.C.T.K.S.D.P.P.I.C.S.[dI].P}$PEPTIDE1,PEPTIDE1,2:R3-10:R3|PEPTIDE1,PEPTIDE1,1:R1-13:R2$$$V2.0; SMILES CC[C@@H](C)[C@H]1NC(=O)[C@H](CO)NC(=O)[C@@H]2CSSC[C@H](NC(=O)[C@H](Cc3ccccc3)NC(=O)[C@@H]3CCCN3C1=O)C(=O)N[C@@H]([C@@H](C)O)C(=O)N[C@@H](CCCCN)C(=O)N[C@@H](CO)C(=O)N[C@@H](CC(=O)O)C(=O)N1CCC[C@H]1C(=O)N1CCC[C@H]1C(=O)N[C@@H]([C@@H](C)CC)C(=O)N2) [Example 50]
66	12.9	90	> 100000	3.2	–	–	–	FCTKSDPPXCS (HELM PEPTIDE1{F.C.T.K.S.D.P.P.[Cha].C.S.[dP].P}$PEPTIDE1,PEPTIDE1,2:R3-10:R3|PEPTIDE1,PEPTIDE1,1:R1-13:R2$$$V2.0; SMILES C[C@@H](O)[C@@H]1NC(=O)[C@@H]2CSSC[C@H](NC(=O)[C@H](CC3CCCCC3)NC(=O)[C@@H]3CCCN3C(=O)[C@@H]3CCCN3C(=O)[C@H](CC(=O)O)NC(=O)[C@H](CO)NC(=O)[C@H](CCCCN)NC1=O)C(=O)N[C@@H](CO)C(=O)N1CCC[C@@H]1C(=O)N1CCC[C@H]1C(=O)N[C@@H](Cc1ccccc1)C(=O)N2) [Example 54]
55	27.6	90	> 100000	–	16	90.4	–	ICTKSDPPQCR (HELM PEPTIDE1{I.C.T.K.S.D.P.P.Q.C.R.[dP].P}$PEPTIDE1,PEPTIDE1,2:R3-10:R3|PEPTIDE1,PEPTIDE1,1:R1-13:R2$$$V2.0; SMILES CC[C@H](C)[C@@H]1NC(=O)[C@@H]2CCCN2C(=O)[C@H]2CCCN2C(=O)[C@H](CCCNC(=N)N)NC(=O)[C@@H]2CSSC[C@H](NC1=O)C(=O)N[C@@H]([C@@H](C)O)C(=O)N[C@@H](CCCCN)C(=O)N[C@@H](CO)C(=O)N[C@@H](CC(=O)O)C(=O)N1CCC[C@H]1C(=O)N1CCC[C@H]1C(=O)N[C@@H](CCC(N)=O)C(=O)N2) [Example 55]
95	12.1	6.5	–	–	73.6	–	19	XCTKSDPPICS (HELM PEPTIDE1{[O=C([C@@H](N[*:1])C1CCCCC1)[*:2]].C.T.K.S.D.P.P.I.C.S.[dP].P}$PEPTIDE1,PEPTIDE1,2:R3-10:R3|PEPTIDE1,PEPTIDE1,1:R1-13:R2$$$V2.0; SMILES CC[C@H](C)[C@@H]1NC(=O)[C@@H]2CCCN2C(=O)[C@@H]2CCCN2C(=O)[C@H](CC(=O)O)NC(=O)[C@H](CO)NC(=O)[C@H](CCCCN)NC(=O)[C@H]([C@@H](C)O)NC(=O)[C@@H]2CSSC[C@H](NC1=O)C(=O)N[C@@H](CO)C(=O)N1CCC[C@@H]1C(=O)N1CCC[C@H]1C(=O)N[C@@H](C1CCCCC1)C(=O)N2) [Example 11]
